Test results from publication PMC3625156, “Biochemical Characteristics of New Delhi Metallo-β-Lactamase-1 Show Unexpected Difference to Other MBLs” (PLoS ONE, 2013).

Legend:
[1] = target: T1, New Delhi metallo-β-lactamase-1 (NDM-1) (Klebsiella pneumoniae, UniProt C7C422); assay: initial hydrolysis rate of […] substrate by purified enzyme at varied ZnSO4; assay type: biochemical
T1 construct: gene blaNDM-1; native (no fusion or tag) NDM-1

[2] = system: C[C@@H](O)[C@H]1C(=O)N2C(C(=O)[O-])=C(SC3Cn4cnc[n+]4C3)[C@H](C)[C@H]12; assay: purified protein; assay type: biochemical, Klebsiella pneumoniae; settings: Zn2+
[3] = system: CC1(C)S[C@@H]2[C@H](NC(=O)Cc3ccccc3)C(=O)N2[C@H]1C(=O)O; assay: purified protein; assay type: biochemical, Klebsiella pneumoniae; settings: Zn2+
[4] = system: CO[C@@]1(NC(=O)Cc2cccs2)C(=O)N2C(C(=O)O)=C(COC(N)=O)CS[C@@H]21; assay: purified protein; assay type: biochemical, Klebsiella pneumoniae; settings: Zn2+
[5] = system: C[C@@H](O)[C@H]1C(=O)N2C(C(=O)O)=C(S[C@@H]3CN[C@H](C(=O)N(C)C)C3)[C@H](C)[C@H]12; assay: purified protein; assay type: biochemical, Klebsiella pneumoniae; settings: Zn2+
[6] = system: CO/N=C(\C(=O)N[C@@H]1C(=O)N2C(C(=O)O)=C(COC(C)=O)CS[C@H]12)c1csc(N)n1; assay: purified protein; assay type: biochemical, Klebsiella pneumoniae; settings: Zn2+
[7] = system: CC(C)(O/N=C(\C(=O)N[C@@H]1C(=O)N2C(C(=O)[O-])=C(C[n+]3ccccc3)CS[C@H]12)c1csc(N)n1)C(=O)O; assay: purified protein; assay type: biochemical, Klebsiella pneumoniae; settings: Zn2+
[8] = system: CCN1CCN(C(=O)N[C@@H](C(=O)N[C@@H]2C(=O)N3[C@@H]2SC(C)(C)[C@@H]3C(=O)O)c2ccccc2)C(=O)C1=O; assay: purified protein; assay type: biochemical, Klebsiella pneumoniae; settings: Zn2+

T1 sequence (C7C422 29-270 limits assumed): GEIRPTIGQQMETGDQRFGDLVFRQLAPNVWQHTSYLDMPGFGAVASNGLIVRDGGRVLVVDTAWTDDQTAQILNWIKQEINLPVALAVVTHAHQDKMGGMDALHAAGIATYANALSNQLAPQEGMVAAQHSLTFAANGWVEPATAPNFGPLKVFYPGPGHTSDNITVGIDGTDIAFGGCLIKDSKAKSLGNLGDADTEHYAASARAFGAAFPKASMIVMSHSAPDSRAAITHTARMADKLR

## CO/N=C(\C(=O)N[C@@H]1C(=O)N2C(C(=O)[O-])=C(C[N+]3(C)CCCC3)CS[C@H]12)c1csc(N)n1 [cefepime]
[1]
  initial hydrolysis rate of 0.5 mM substrate by purified enzyme at varied ZnSO4: The hydrolysis rates of cephem (ceftazidime and cefepime) were found to be very sensitive to the ZnSO4 concentration

## New Delhi metallo-β-lactamase-1 (NDM-1) (Klebsiella pneumoniae)
[2]
  Km: 155 µM
  kcat: 106 s⁻¹
  kcat/Km: 680000 M⁻¹ s⁻¹
[3]
  Km: 103 µM
  kcat: 27.5 s⁻¹
  kcat/Km: 270000 M⁻¹ s⁻¹
[4]
  Km: 63 µM
  kcat: 38.3 s⁻¹
  kcat/Km: 610000 M⁻¹ s⁻¹
[5]
  Km: 42 µM
  kcat: 30.8 s⁻¹
  kcat/Km: 730000 M⁻¹ s⁻¹
[6]
  Km: 43 µM
  kcat: 31.5 s⁻¹
  kcat/Km: 740000 M⁻¹ s⁻¹
[7]
  Km: 74 µM
  kcat: 60.9 s⁻¹
  kcat/Km: 830000 M⁻¹ s⁻¹
[8]
  Km: 69 µM
  kcat: 8.3 s⁻¹
  kcat/Km: 120000 M⁻¹ s⁻¹
